From paper doi:10.1101/236612 (bioRxiv, 2017)

Assays:
Assay in all cases: co-IP
[1] = molecular target: T1, GFP-tagged TOMM20 (UniProt Q15388 1-145)
T1 sequence: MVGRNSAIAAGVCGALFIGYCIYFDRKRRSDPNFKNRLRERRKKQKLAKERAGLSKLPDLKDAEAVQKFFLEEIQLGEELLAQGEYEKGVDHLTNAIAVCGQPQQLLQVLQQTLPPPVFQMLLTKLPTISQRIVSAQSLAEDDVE

[2] = molecular target: T2, GFP-tagged TOMM70 (UniProt O94826 1-608)
T2 sequence: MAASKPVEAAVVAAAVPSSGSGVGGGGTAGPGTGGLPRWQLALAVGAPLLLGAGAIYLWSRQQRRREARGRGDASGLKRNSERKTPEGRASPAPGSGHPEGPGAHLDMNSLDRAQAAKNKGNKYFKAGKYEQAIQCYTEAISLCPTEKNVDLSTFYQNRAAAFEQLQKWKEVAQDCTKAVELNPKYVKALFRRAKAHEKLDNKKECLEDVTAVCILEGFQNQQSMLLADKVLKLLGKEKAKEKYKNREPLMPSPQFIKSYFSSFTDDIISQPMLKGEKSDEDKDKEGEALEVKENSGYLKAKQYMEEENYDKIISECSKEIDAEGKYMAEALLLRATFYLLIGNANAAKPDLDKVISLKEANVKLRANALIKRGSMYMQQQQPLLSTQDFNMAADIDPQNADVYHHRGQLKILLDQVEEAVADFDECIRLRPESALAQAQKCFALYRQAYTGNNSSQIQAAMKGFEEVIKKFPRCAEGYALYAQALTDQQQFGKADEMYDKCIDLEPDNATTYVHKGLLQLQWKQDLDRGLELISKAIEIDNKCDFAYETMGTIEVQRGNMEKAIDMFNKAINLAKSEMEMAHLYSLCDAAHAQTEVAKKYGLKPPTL

[3] = molecular target: T3, GFP-tagged Prohibitin (PHB) (UniProt P35232 1-272)
T3 sequence: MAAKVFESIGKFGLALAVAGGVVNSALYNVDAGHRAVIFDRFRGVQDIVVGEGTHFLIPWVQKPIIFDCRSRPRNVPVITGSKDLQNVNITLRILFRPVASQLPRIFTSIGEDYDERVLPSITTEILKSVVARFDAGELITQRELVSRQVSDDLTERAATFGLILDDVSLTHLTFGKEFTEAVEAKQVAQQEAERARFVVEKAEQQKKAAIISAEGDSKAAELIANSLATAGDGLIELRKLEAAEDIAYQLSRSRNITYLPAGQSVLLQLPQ

Measured: fold less AURKA in the pulldown than in pulldowns of TPX2

B1: endogenous AURKA (Aurora A kinase) (enzyme)
chain: MDRSKENCISGPVKATAPVGGPKRVLVTQQFPCQNPLPVNSGQAQRVLCPSNSSQRIPLQAQKLVSSHKPVQNQKQKQLQATSVPHPVSRPLNNTQKSKQPLPSAPENNPEEELASKQKNEESKKRQWALEDFEIGRPLGKGKFGNVYLAREKQSKFILALKVLFKAQLEKAGVEHQLRREVEIQSHLRHPNILRLYGYFHDATRVYLILEYAPLGTVYRELQKLSKFDEQRTATYITELANALSYCHSKRVIHRDIKPENLLLGSAGELKIADFGWSVHAPSSRRTTLCGTLDYLPPEMIEGRMHDEKVDLWSLGVLCYEFLVGKPPFEANTYQETYKRISRVEFTFPDFVTEGARDLISRLLKHNPSQRPMLREVLEHPWITANSSKPSNCQNKESASKQS
≥ 10 fold: all assays above
